Source: US20100189760A1

B1: clone Co-17 peptide (peptide)
peptide: WECAEESKFWCVF
B2: clone 7C-4 peptide (peptide)
peptide: YMCMSRGDATCDV
B3: clone 15-50 peptide (peptide)
peptide: GFVLVWSYTCRCWGK
B4: clone 7C-20 peptide (peptide)
peptide: WVCIWERFKSCNE
B5: clone 7C-17 peptide (peptide)
peptide: WLCKGSNKYMCEW
B6: clone Co-13 peptide (peptide)
peptide: STCSWVSSYVCIM
B7: clone Co-20 peptide (peptide)
peptide: RLCCWKTQYFCEI
B8: clone 7C-3 peptide (peptide)
peptide: WFCLLGRSAYCVR
B9: clone 15-52 peptide (peptide)
peptide: ESGLKVMCMKYYCMA
B10: clone Co-5 peptide (peptide)
peptide: WDCGKKNAWMCIW
B11: clone Co-19 peptide (peptide)
peptide: WQCGRFWCIHCLW
B12: clone 7C-2 peptide (peptide)
peptide: ESCWYQIMYKCAN
B13: clone Co-9 peptide (peptide)
peptide: SKCWGWTPYYCVA
B14: clone Co-2 peptide (peptide)
peptide: WSCPKVNQYACFW
B15: clone Co-11 peptide (peptide)
peptide: LECPGESKYYCIY
B16: clone Co-16 peptide (peptide)
peptide: QGCAFVTYWACIF
B17: clone Co-22 peptide (peptide)
peptide: VWCGMFGKRRCVT
B18: clone 7C-21 peptide (peptide)
peptide: WNCIKGSSWACVW
B19: clone Co-18 peptide (peptide)
peptide: WWCKKPEYWYCIW
B20: clone Co-3 peptide (peptide)
peptide: GGCRWYAKWVCVW
B21: clone 7C-24 peptide (peptide)
peptide: WWCDMRGDSRCSG
B22: clone Co-12 peptide (peptide)
peptide: WVCLWRHRGDCSI
B23: clone 7C-15 peptide (peptide)
peptide: QCCQLRGDAVCNC
B24: clone 7C-7 peptide (peptide)
peptide: LECTERGDFNCFV
B25: clone 7C-14 peptide (peptide)
peptide: LNCAMYNACIW
B26: clone 15-2 peptide (peptide)
peptide: DHKFGLVMLNKYAYAG
B27: clone 7C-5 peptide (peptide)
peptide: IWCGSRFGCWCKP
B28: clone 15-59 peptide (peptide)
peptide: DLCTYGHLWLGNGRP
B29: clone Co-21 peptide (peptide)
peptide: MYCERDSKYWCIH
B30: clone 15-6 peptide (peptide)
peptide: LEDAMGWALSWGHIW
B31: clone Co-1 peptide (peptide)
peptide: SLCAAYNRWACIW
B32: clone Co-23 peptide (peptide)
peptide: LVCNRQNPWVCYI
B33: clone 7C-11 peptide (peptide)
peptide: LCCESYICALCHY
B34: clone 7C-9 peptide (peptide)
peptide: KLCCFDKGYYCMR
B35: clone Co-10 peptide (peptide)
peptide: WRCLGDGYHACVR
B36: clone 7C-8 peptide (peptide)
peptide: WLCLDKNCMACVW
B37: clone Co-8 peptide (peptide)
peptide: WTWESAFAGRWEVGD
B38: clone 7C-6 peptide (peptide)
peptide: GECFYYVMNTCVW
B39: clone 7C-22 peptide (peptide)
peptide: WMCSGVQPNACVW
B40: clone 7C-1 peptide (peptide)
peptide: WYCFRENKYVCVM
B41: clone 15-32 peptide (peptide)
peptide: RRELVRMTDWVWVSG
B42: clone 7C-12 peptide (peptide)
peptide: FWCIRGEYWVCDR
B43: clone 15-16 peptide (peptide)
peptide: SDWSVLLSCERWYCI
B44: clone Co-15 peptide (peptide)
peptide: WVCNDLIHHFCVW
B45: clone 7C-19 peptide (peptide)
peptide: WVCNKLGVYACEY

Each binder was assayed against neural stem cell surface (cell surface molecule(s) of NSCs, not identified) (rat (adult hippocampus, stated in Example 1)) (assay: flow cytometry, GFP bacterial clone displaying the peptide on NSCs).
B1 showed a % NSCs with Bacteria of 72.1%.
B2 gave a % NSCs with Bacteria of 62%.
With B3 the % NSCs with Bacteria was 64.9%.
For B4, the % NSCs with Bacteria was 65.7%.
Work on B5 yielded a % NSCs with Bacteria of 67.8%.
B6 showed a % NSCs with Bacteria of 64.8%.
With B7 the % NSCs with Bacteria was 70.9%.
Binder B8 has a % NSCs with Bacteria of 71.9%.
B9 gave a % NSCs with Bacteria of 63.3%.
B10 gave a % NSCs with Bacteria of 67.4%.
B11 was tested, and the % NSCs with Bacteria was 50.6%.
B12 showed a % NSCs with Bacteria of 55.2%.
For B13, the % NSCs with Bacteria was 75.7%.
For B14, the % NSCs with Bacteria was 74.8%.
Work on B15 yielded a % NSCs with Bacteria of 72.7%.
B16 showed a % NSCs with Bacteria of 71.9%.
Binder B17 has a % NSCs with Bacteria of 75.6%.
For B18, the % NSCs with Bacteria was 75.5%.
B19 showed a % NSCs with Bacteria of 71.3%.
B20 gave a % NSCs with Bacteria of 75.7%.
B21 showed a % NSCs with Bacteria of 61.7%.
With B22 the % NSCs with Bacteria was 74.3%.
B23 showed a % NSCs with Bacteria of 54%.
Work on B24 yielded a % NSCs with Bacteria of 47.8%.
B25 gave a % NSCs with Bacteria of 54.5%.
B26 gave a % NSCs with Bacteria of 75.9%.
Binder B27 has a % NSCs with Bacteria of 65.6%.
In the case of B28, the % NSCs with Bacteria is reported as 22.5%.
Work on B29 yielded a % NSCs with Bacteria of 70.9%.
Binder B30 has a % NSCs with Bacteria of 70.2%.
B31 showed a % NSCs with Bacteria of 73.8%.
B32 was tested, and the % NSCs with Bacteria was 71.1%.
For B33, the % NSCs with Bacteria was 37.7%.
In the case of B34, the % NSCs with Bacteria is reported as 71.3%.
Work on B35 yielded a % NSCs with Bacteria of 72.7%.
B36 showed a % NSCs with Bacteria of 68.8%.
B37 showed a % NSCs with Bacteria of 61.7%.
In the case of B38, the % NSCs with Bacteria is reported as 61.8%.
In the case of B39, the % NSCs with Bacteria is reported as 46.9%.
B40 was tested, and the % NSCs with Bacteria was 75.2%.
B41 was tested, and the % NSCs with Bacteria was 70.4%.
Work on B42 yielded a % NSCs with Bacteria of 64.5%.
For B43, the % NSCs with Bacteria was 63.9%.
Binder B44 has a % NSCs with Bacteria of 70.9%.
With B45 the % NSCs with Bacteria was 20.5%.
